# Experimental data taken from EP2173340B1, “METHODS OF ENHANCING COGNITIVE FUNCTION USING NON-PEPTIDIC COMPOUNDS” (Acumen Pharmaceuticals, Inc., priority 2007, dated 2009).
# Molecular target: T1, Aβ1-42 ADDLs (Homo sapiens, UniProt P05067)
# T1 construct: Synthetic Aβ1-42 powder was dissolved in 1,1,1,3,3,3 hexafluorisopropanol (HFIP)
# Test: Alternating Lever Cyclic Ratio (ALCR) rat model
# Type: in vivo
# Protocol: Preparations of Aβ1-42 ADDLs and a potential therapeutic compounds under the Alternating Lever Cyclic Ratio (ALCR) rat model of AD were tested. This highly sensitive model has been able to detect cognitive deficits due to direct injection of cell-derived Aβ oligomers into rat brain. In this study, a direct injection of ADDLs made from synthetic Aβ1-42 and a putative therapeutic compound under the ALCR procedure were tested.
# The ALCR test has proven to be much more sensitive than previously published methods for measuring drug effects on cognitive function. In this task, rats must learn a complex sequence of lever-pressing requirements in order to earn food reinforcement in a two-lever experimental chamber. Subjects must alternate between two levers by switching to the other lever after pressing the first lever enough to get food reward. The exact number of presses required for each food reward changes, first increasing from 2 responses per food pellet up to 56 presses per food pellet, then decreasing back to 2 responses per pellet. Intermediate values were based on the quadratic function, x^2 - x. One cycle was an entire ascending and descending sequence of these lever press requirements (e.g., 2, 6, 12, 20, 30, 42, 56, 56, 42, 30, 20, 12, 6, and 2 presses per food reward). Six such full cycles were presented during each daily session.
# Synthetic Aβ1-42 powder was dissolved in 1,1,1,3,3,3 hexafluorisopropanol (HFIP) to afford a solution of Aβ1-42 in HFIP of about 1 mM and allowed to incubate at ambient temperature for about 1 h. The resulting solution was chilled on ice for about 5-10 min, then aliquoted into eppendorf tubes to provide about 50 µl of solution per tube. The tubes were then placed in a chemical fume hood and allowed to stand overnight to allow the HFIP to evaporate under a slow stream of nitrogen. To removed final traces of HFIP, the tubes were subjected to two SpeedVac cycles of 15 min at room temperature and about 15 to 25 in Hg of vacuum. The resulting films of monomerized Aβ1-42 peptide were stored over desiccant at -80 °C until used.
# A tube of monomerized Aβ1-42 peptide was warmed to room temperature and the Aβ1-42 peptide was dissolved in anhydrous DMSO to afford a peptide stock DMSO solution containing about 10 µM to about 100 µM Aβ1-42 peptide in DMSO.
# 2 µl of a 20 mM stock solution of test compound in anhydrous DMSO is added to 998 µl of neural basal media (phenol red free, Gibco 12348-017) to give a compound neural basal media solution containing 40 µM of test compound in neural basal media.
# For the Aβ1-42 peptide only treatment, peptide stock DMSO solution is added to 37 °C neural basal to obtain the requisite Aβ1-42 peptide monomer concentration, provided that the maximum concentration of DMSO is 1% or less, and the tube is vortexed for 30 to 60 seconds, spun down briefly in a microfuge and incubated at 37 °C for 15 min prior to the start of injections.
# For the Aβ1-42 peptide plus test compound treatment, peptide stock DMSO solution is added to 37 °C compound neural basal media solution to obtain the requisite Aβ1-42 peptide monomer concentration, provided that the maximum concentration of DMSO is 1% or less, and the tube is vortexed for 30 to 36 seconds, spun down briefly in a microfuge and incubated at 37 °C for 15 min prior to the start of injections.
# For control injections, compound neural basal media solution is incubated at 37 °C for 15 min prior to the start of injections.
# Rats: Rats were trained under ALCR until their error rates were stable. Once the rats were placed upon the final ALCR procedure, training sessions were conducted 7 days each week until the end of the study.
# Surgery: All rats received a single 28 ga cannula, which was permanently affixed to the skull, and aimed at the lateral ventricle. Half the rats received cannula in the right ventricle and half received cannula in the left ventricle. Rats were allowed 5 days to recover from surgery before training resumed. […]
# [1] = injectate given alone, 20 µl via cannula aimed at lateral ventricle, tested about 3 hours following injection, base line error rate equalized to 1.00
# T1 sequence (P05067 672-713 limits assumed): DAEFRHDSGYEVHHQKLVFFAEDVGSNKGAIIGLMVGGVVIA
substance,measurement,setting,value
"Aβ1-42 ADDLs: ADDLs made from synthetic Aβ1-42; soluble, oligomeric, globular, non-fibrillar, neurotoxic Aβ1-42 peptides",Approach Errors Mean,[1],1.02
same,Perseveration Errors Mean,[1],1.33
same,Perseveration Error rate,"versus baseline error rates, ADDLs alone, result in words",significantly increased
